The values below come from patent US20130046257A1, “METHODS OF USING AGENTS THAT MODULATE CLAUDIN EXPRESSION” (priority 2010, published 2013).

“And” between values parts separate entries of the source, which are not always exact repeats. Identical values can stand only once. “Also recorded” adds a separate entry of the source. Where only a bound is given, the exact number is not on record here.

Format in all cases: cell-based, human
Data set [1] deals with occludin, ZO-1, nectin-1, E-cadherin, filaggrin mRNA. Put plainly: qPCR of other barrier genes in claudin-1 siRNA transfected PHK. To be noted: siRNA 100 nM. The method, then: (§1) QPCR was performed using the iScript™ cDNA Synthesis kit and iQ™ SYBER Green Supermix assay system (Bio-Rad Laboratories). All PCR amplifications were carried out in triplicate on an iQ5 Multicolor real-time PCR detection system (Bio-Rad). Primers were designed and synthesized by Integrated
(§2) DNA Technologies (Table 1). Relative gene expression was calculated by using the 2^−ΔΔCt method. Livak and Schmittgen, “Analysis of Relative Gene Expression Data Using Real-Time Quantitative PCR and the 2(-Delta Delta C(T)) Method,” Methods 25:402-8 (2001), which is hereby incorporated by reference in its entirety. The normalized Ct value of each sample was calculated using GAPDH as an endogenous control gene.
Reverse transcription was performed from total RNA using iScript™ cDNA Synthesis kit (Bio-Rad) according to the manufacturer's protocol. qPCR was performed using the iQ™ SYBER Green Supermix assay system from Bio-Rad Laboratories. All PCR amplifications were carried out in triplicate on an iQ5 Multicolor real-time PCR detection system (Bio-Rad). Primers were designed and synthesized by Integrated DNA Technologies. Primers used in the study: GAPDH (forward: SEQ ID NO: 16 and reverse: SEQ ID NO: 17); Cldn-1 (forward: (SEQ ID NO:18 and reverse: SEQ ID NO:19); PVRL1 (Nectin1; forward: SEQ ID NO:28 and reverse SEQ ID NO:29).
Relative gene expression was calculated by using the […] method, in which Ct indicates cycle threshold, the fractional cycle number where the fluorescent signal reaches detection threshold. Livak and Schmittgen, “Analysis of Relative Gene Expression Data Using Real-Time Quantitative PCR and the 2(-Delta Delta C(T)) Method,” Methods 25:402-8 (2001), which is hereby incorporated by reference in its entirety. The normalized Ct value of each sample was calculated using GAPDH as an endogenous control gene.
A general note: Real-time PCR tracks product formation cycle by cycle.

Another data set concerns connexin-26 (GJB2). Put plainly: qPCR of connexin-26 in claudin-1 siRNA transfected PHK. To be noted: n=6. The method, then:
as §1, §2

The test system of the next data set is claudin-1. Put plainly: Western blot of claudin-1 in siRNA transfected PHK. The settings on record: 48 h. The method, then: (§3) PHK were lysed on ice in RIPA lysis buffer (20 mM Tris, 50 mM NaCl, 2 mM EDTA, 2 mM EGTA, 1% sodium deoxycholate, 1% TX-100, and 2% SDS, pH 7.4), with 1:100 Protease Inhibitor Cocktail (Sigma), 1:100 Phosphatase Inhibitor Cocktail ([…] for 30 min at 4° C. The samples were heated at 95° C. for 10 min and then centrifuged at 14,000 rpm for 15 min. Forty μg of protein, determined by BCA (Pierce) in NuPage LDS Sample Buffer (Invitrogen) was applied to 4-12% NuPage Bis-Tris gels (Invitrogen). Electrophoresis was performed under reducing conditions with MES SDS Buffer (Invitrogen). Membranes were incubated in blotting solution (5% non-fat dry milk in PBS+0.05% Tween 20) at RT for 1 h and then incubated with primary antibodies; claudin-1 (JAY.8; Zymed), occludin (OC/3F10; Zymed) and GAPDH (FL-355; Santa Cruz). An HRP-linked secondary antibody (GE Healthcare) was used with ECL (GE Healthcare) to visualize bands by autoradiography with Kodak BioMax MR film. The pixel intensity of each band was estimated with Image J.
Chain of claudin-1 (O95832 whole entry): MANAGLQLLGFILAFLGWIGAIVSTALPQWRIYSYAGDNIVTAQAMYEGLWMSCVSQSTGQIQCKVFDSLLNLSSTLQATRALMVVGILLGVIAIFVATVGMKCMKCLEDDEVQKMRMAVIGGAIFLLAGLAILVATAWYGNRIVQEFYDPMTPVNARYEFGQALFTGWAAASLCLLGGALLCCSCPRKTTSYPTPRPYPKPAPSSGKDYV
(§4) PHK were plated on glass coverslips at 2-3×10^5 cells/well in a 6-well plate or at 2-3×10^4 cells/filter in Transwell insert (Costar; PET membrane, 0.4 μm pore size, 6.5 mm insert) in Keratinocyte-SFM without antibiotics. […]
For orientation: In western blotting, separated proteins are transferred to a membrane and probed.

For a further data set, the system named is occludin. Put plainly: Western blot of occludin in siRNA transfected PHK. To be noted: 48 h. The protocol:
as §3, §4

A further data set deals with HSV-1 strain F. Put plainly: Infectious center assay (HSV-1 infected PHK on Vero cells). To be noted: siRNA 100 nM, 24 h post-infection, n=3. The method, then: Infection studies were performed using the highly virulent HSV-1 strain F (provided by Dr. D.C. Johnson). Twenty-four to 48 h post-transfection with 100 nM claudin-1 or control siRNA, the cells were differentiated in DMEM with 10% heat-inactivated FBS for 24 h. Cells were washed twice with HBSS and infected with HSV-1 strain F at a multiplicity of infection (MOI) of 0.1 in DMEM containing 1% heat-inactivated FBS at 37° C., with rocking every 15 min. After 2 h, the viral inoculum was removed, and the cells were washed 2× with HBSS and incubated in DMEM containing 5% HI-FBS and 0.4% human-γ-globulin (Sigma; final concentration 0.5 mg/ml) for 24 hr to neutralize any extracellular virus.
Twenty-four hours post-infection, PHK were treated with 0.05% Trypsin—EDTA (Invitrogen/Gibco) for 5 min at 37° C. followed by gently scraping to lift the cells, washed 3 times in DMEM containing 1% HI-FBS, and vortexed for 30 sec to disrupt cell clumps. Alive cells were counted using Trypan blue exclusion and scalar PHK dilutions (1000 to 1 cells in 1 ml of media) were plated onto pre-grown monolayers of Vero cells in six well plates. After 2 h, 1 ml of DMEM containing 5% HI-FBS and 0.4% human-γ-globulin (Sigma; final concentration 0.5 mg/ml) was added to each well. […] Plaques were counted by 2 independent investigators and results expressed as percent of infected PHK.

B1: CLDN1 siRNA: claudin-1 siRNA (h), Santa Cruz; a pool of 3 separate strands, SEQ ID NO: 10-15 (nucleic acid)
chain 1: UACAUAGGCAUAGUUCAUGNN
chain 2: CAUGAACUAUGCCUAUGUANN
chain 3: AACGUAUGCAGUUAAUUCCNN
chain 4: GGAAUUAACUGCAUACGUUNN
chain 5: UGAAGAUCUAUGUAUGUGGNN
chain 6: CCACAUACAUAGAUCUUCANN
modifications: chemistry not given here
For B1, the “effect on nectin-1 mRNA expression” value in data set [1] is recorded as “not affected; also recorded: no effect”. Besides, in data set [1] (n=5/group), the “effect on mRNA expression of occludin, ZO-1, nectin-1, E-cadherin or filaggrin” value was “no effect” and the “nectin-1 (PVRL1) mRNA relative expression” value is 0.99±0.16. Further, in the data set on connexin-26 (GJB2), the “connexin-26 (GJB2) expression, fold over control” value is on record as 1.7±0.8 fold. Besides, the “claudin-1 protein by Western blot” value in the data set on claudin-1 is “dose-dependent reduction”. In addition, the “decrease in claudin-1 protein expression compared to scrambled siRNA-transfected cells” value with claudin-1 (Western blot, dose-dependent) was no more than 60%. The “occludin protein by Western blot” value with occludin is reported as “No change”. The “PHK infected with HSV-1” value in the data set with HSV-1 strain F was 38±6% and 38±6.43%.
